Assay results reported in patent publication US7488598B2, “Mutant purine nucleoside phosphorylase proteins and cellular delivery thereof” (priority 2001, dated 2009).
Where a chain is given by its changes, count along the chain named. Names and notes keep the numbering of the source. Values joined by “and” are separate entries in the source; they are usually repeats but may differ in a detail not shown here. Equal values may be shown once.

B1: M65I (protein, UniProt P0ABP8 2-239, looked up, variant M65I)
Purine nucleoside …: ATPHINAEMGDFADVVLMPGDPLRAKYIAETFLEDAREVNNVRGMLGFTGTYKGRKISVMGHGIGIPSCSIYTKELITDFGVKKIIRVGSCGAVLPHVKLRDVVIGMGACTDSKVNRIRFKDHDFAAIADFDMVRNAVDAAKALGIDARVGNLFSADLFYSPDGEMFDVMEKYGILGVEMEAAGIYGVAAEFGAKALTICTVSDHIRTHEQTTAAERQTTFNDMIKIALESVLLGDKE
B2: M181L (protein, UniProt P0ABP8 2-239, looked up, variant M181L)
Purine nucleoside …: B1 Purine nucleoside … with I64M, M180L
B3: E182Q (protein, UniProt P0ABP8 2-239, looked up, variant E182Q)
Purine nucleoside …: B1 Purine nucleoside … with I64M, E181Q
B4: E180S (protein, UniProt P0ABP8 2-239, looked up, variant E180S)
Purine nucleoside …: B1 Purine nucleoside … with I64M, E179S
B5: D205N (protein, UniProt P0ABP8 2-239, looked up, variant D205N)
Purine nucleoside …: B1 Purine nucleoside … with I64M, D204N
B6: M65A (protein, UniProt P0ABP8 2-239, looked up, variant M65A)
Purine nucleoside …: B1 Purine nucleoside … with I64A
B7: E182V (protein, UniProt P0ABP8 2-239, looked up, variant E182V)
Purine nucleoside …: B1 Purine nucleoside … with I64M, E181V
B8: E182A (protein, UniProt P0ABP8 2-239, looked up, variant E182A)
Purine nucleoside …: B1 Purine nucleoside … with I64M, E181A
B9: M181N (protein, UniProt P0ABP8 2-239, looked up, variant M181N)
Purine nucleoside …: B1 Purine nucleoside … with I64M, M180N
B10: M181V (protein, UniProt P0ABP8 2-239, looked up, variant M181V)
Purine nucleoside …: B1 Purine nucleoside … with I64M, M180V
B11: M181A (protein, UniProt P0ABP8 2-239, looked up, variant M181A)
Purine nucleoside …: B1 Purine nucleoside … with I64M, M180A
B12: M65Q (protein, UniProt P0ABP8 2-239, looked up, variant M65Q)
Purine nucleoside …: B1 Purine nucleoside … with I64Q
B13: H5N (protein, UniProt P0ABP8 2-239, looked up, variant H5N)
Purine nucleoside …: B1 Purine nucleoside … with H4N, I64M
B14: E180T (protein, UniProt P0ABP8 2-239, looked up, variant E180T)
Purine nucleoside …: B1 Purine nucleoside … with I64M, E179T
B15: D205A (protein, UniProt P0ABP8 2-239, looked up, variant D205A)
Purine nucleoside …: B1 Purine nucleoside … with I64M, D204A
B16: M181E (protein, UniProt P0ABP8 2-239, looked up, variant M181E)
Purine nucleoside …: B1 Purine nucleoside … with I64M, M180E

Legend:
[1] = tested on: Clostridium perfringens; assay type: biochemical
[2] = molecular target: wild-type E. coli PNP (Escherichia coli, UniProt P0ABP8); details: Table III; 100 μM substrate; HPLC; average of separate experiments
[3] = molecular target: E. coli PNP mutant M65V (Escherichia coli, UniProt P0ABP8, M65V); details: for M65V percent of wild-type activity: Table II, relative to wild-type PNP of the same line
[4] = tested on: Cc1ncnc2c1ncn2[C@@H]1O[C@H]([C@H](C)O)[C@@H](O)[C@H]1O; assay: purified protein, by the assay type; details: other: wild-type enzyme
[5] = tested on: Cc1ncnc2c1ncn2[C@H]1C[C@H](O)[C@@H](CO)O1; assay: purified protein, by the assay type; details: other: wild-type enzyme
[6] = tested on: Nc1ncnc2c1ncn2[C@@H]1O[C@@H](CO)[C@@H](O)[C@H]1O; assay: purified protein, by the assay type; details: other: wild-type enzyme
[7] = molecular target: E. coli PNP mutant M65A (Escherichia coli, UniProt P0ABP8, M65A)
[8] = E. coli PNP enzyme activity with substrate MeP-dR; details: substrate MeP-dR; for Percent of Control Activity, MeP-dR: percent of wild-type activity; for Activity, MeP-dR: Table IV, 0 denotes no measurable activity
[9] = E. coli PNP enzyme activity with substrate F-araA; details: percent of wild-type activity
[10] = E. coli PNP enzyme activity with substrate allo-acet; details: Table IV, 0 denotes no measurable activity
[11] = E. coli PNP enzyme activity with substrate talo-acet; details: Table IV, 0 denotes no measurable activity
[12] = E. coli PNP enzyme activity with substrate α-L-lyxo; details: Table IV, 0 denotes no measurable activity
[13] = E. coli PNP enzyme activity with substrate 5′-NH2; details: Table IV, 0 denotes no measurable activity
[14] = Table III, 100 μM substrate, HPLC, average of separate experiments

Row | Molecule | Percent of Control Activity, MeP-dR [8] | Percent of Control Activity, F-araA [9] | also measured
1 | Cc1ncnc2c1ncn2[C@H]1C[C@H](O)[C@@H](CO)O1 [MeP-dR, 9-(2-deoxy-β-D-ribofuranosyl)-6-methylpurine] | – | – | enzyme activity converting MeP-dR to MeP [1]: capable of converting MeP-dR to MeP; Wild type, pure enzyme, rate of cleavage [2]: 528,000 nmole/mg/hr; M65V percent of wild-type activity [3]: (57%); M65V, crude extract, rate of cleavage [3, 14]: 535,000 nmole/mg/hr; M65V, pure enzyme, rate of cleavage ([3]; Table III, pure enzyme, 100 μM substrate, HPLC, average of separate experiments): 593,000 nmole/mg/hr
2 | wild-type E. coli PNP (Escherichia coli K-12) | – | – | Km [4]: 2,980 μM and 3,000 μM; Km [5]: 140 µM and 111 µM; Vmax [5]: 30.2 µmol/min/mg and 18.3 µmol/min/mg; kcat [5]: 12.1 s⁻¹ and 7.33 s⁻¹; Km [6]: 1,370 μM and 1,340 μM; kcat [6]: 0.133 s⁻¹ and 0.383 s⁻¹
3 | C#C[C@H](O)[C@H]1O[C@@H](n2cnc3c(C)ncnc32)[C@H](O)[C@@H]1O [9-(6,7-dideoxy-α-L-hept-6-ynofuranosyl)-6-methylpurine] | – | – | activity of mutant M65A compared with wild-type enzyme (in words) ([7]; Example 16 analysis): more activity
4 | NC[C@H]1O[C@@H](n2cnc3c(N)ncnc32)[C@H](O)[C@@H]1O [5′-amino-5′-deoxy-Ado, 5′-amino-5′-deoxyadenosine] | – | – | Wild type, pure enzyme, rate of cleavage [2]: 539 nmol/mg/h; M65A percent of wild-type activity ([7]; Table II, relative to wild-type PNP of the same line): (5%); M65V percent of wild-type activity [3]: (94%); M65V, crude extract, rate of cleavage [3, 14]: 930 nmol/mg/h
5 | B1 | 0.02% | 0.15% | Activity, allo-acet [10]: 0 nmol/mg/h; Activity, talo-acet [11]: 0 nmol/mg/h
6 | B2 | 0.6% | 1.6% | –
7 | B3 | 0.6% | 1.0% | –
8 | B4 | 0.5% | 0.8% | –
9 | B5 | 2.2% | 2.4% | –
10 | B6 | 1.5% | 1.6% | Activity, MeP-dR [8]: 12,000 nmoles/mg/hour and 9,400 nmoles/mg/hour; Activity, α-L-lyxo [12]: 1,500 nmoles/mg/hour and 1,070 nmoles/mg/hour; Activity, allo-acet [10]: 0 nmol/mg/h
11 | B7 | 0.3% | 0.6% | –
12 | B8 | 0.5% | 0.9% | –
13 | B9 | 0.1% | 0.4% | –
14 | B10 | 0.02% | 0.07% | –
15 | B11 | 0.04% | 0.2% | –
16 | B12 | 0.6% | 1.0% | Activity, MeP-dR [8]: 6050 nmol/mg/h and 4210 nmol/mg/h; Activity, 5′-NH2 [13]: 26 nmol/mg/h and 42 nmol/mg/h; Activity, allo-acet [10]: 0 nmol/mg/h; Activity, talo-acet [11]: 0 nmol/mg/h
17 | B13 | 0.08% | 0.15% | Activity, α-L-lyxo [12]: 16 nmol/mg/h and 11 nmol/mg/h; Activity, allo-acet [10]: 0 nmol/mg/h; Activity, talo-acet [11]: 0 nmol/mg/h
18 | B14 | 0.06% | 0.1% | –
19 | B15 | 1.0% | 1.1% | –
20 | B16 | 0.04% | 0.1% | –
